Measured values reported in paper doi:10.1101/2020.11.04.367136 (bioRxiv, 2020).

T1: GFP–Rad55–Rad57 complex (His6–GFP–Rad55 and FLAG–Rad57) (S. cerevisiae, UniProt P38953 1-406; P25301 1-460)
T1 sequence (looked up) 1: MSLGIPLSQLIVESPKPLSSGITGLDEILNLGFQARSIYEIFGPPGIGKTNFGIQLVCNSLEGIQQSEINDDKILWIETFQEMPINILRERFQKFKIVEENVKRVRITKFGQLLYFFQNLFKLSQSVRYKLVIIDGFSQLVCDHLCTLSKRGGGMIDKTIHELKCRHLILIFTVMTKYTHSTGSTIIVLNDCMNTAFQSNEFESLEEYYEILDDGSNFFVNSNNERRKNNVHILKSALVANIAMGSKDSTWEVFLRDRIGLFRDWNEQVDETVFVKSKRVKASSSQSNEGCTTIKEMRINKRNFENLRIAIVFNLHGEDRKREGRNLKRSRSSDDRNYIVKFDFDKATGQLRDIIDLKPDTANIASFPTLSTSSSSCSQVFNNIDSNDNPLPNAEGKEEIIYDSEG
T1 sequence (looked up) 2: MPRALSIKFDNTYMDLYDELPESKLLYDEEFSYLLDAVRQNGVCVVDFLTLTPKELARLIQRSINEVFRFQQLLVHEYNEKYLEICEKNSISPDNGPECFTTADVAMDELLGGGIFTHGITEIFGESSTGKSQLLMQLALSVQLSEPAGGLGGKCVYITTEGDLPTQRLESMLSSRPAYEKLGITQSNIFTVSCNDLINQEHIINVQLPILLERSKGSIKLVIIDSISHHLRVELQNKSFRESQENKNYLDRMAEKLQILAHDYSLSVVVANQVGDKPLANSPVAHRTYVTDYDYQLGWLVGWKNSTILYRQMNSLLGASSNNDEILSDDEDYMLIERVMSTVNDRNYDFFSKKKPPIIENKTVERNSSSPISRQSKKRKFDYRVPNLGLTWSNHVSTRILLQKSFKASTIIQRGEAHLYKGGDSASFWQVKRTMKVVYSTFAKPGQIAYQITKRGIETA

B1: Rad51 (natural protein, S. cerevisiae, UniProt P25454 1-400, looked up)
chain: MSQVQEQHISESQLQYGNGSLMSTVPADLSQSVVDGNGNGSSEDIEATNGSGDGGGLQEQAEAQGEMEDEAYDEAALGSFVPIEKLQVNGITMADVKKLRESGLHTAEAVAYAPRKDLLEIKGISEAKADKLLNEAARLVPMGFVTAADFHMRRSELICLTTGSKNLDTLLGGGVETGSITELFGEFRTGKSQLCHTLAVTCQIPLDIGGGEGKCLYIDTEGTFRPVRLVSIAQRFGLDPDDALNNVAYARAYNADHQLRLLDAAAQMMSESRFSLIVVDSVMALYRTDFSGRGELSARQMHLAKFMRALQRLADQFGVAVVVTNQVVAQVDGGMAFNPDPKKPIGGNIMAHSSTTRLGFKKGKGCQRLCKVVDSPCLPEAECVFAIYEDGVGDPREEDE

Key:
Rad51 = molecular target: B1; assay: single-molecule ssDNA curtain assay
[1] = molecular target: T1, GFP–Rad55–Rad57 complex (His6–GFP–Rad55 …); assay: single-molecule ssDNA curtain assay

binding result (Rad51) | koff [1] [s⁻¹] | Binder
binds |  | GST–Hed1–6xHis–GFP (natural protein, S. cerevisiae, UniProt Q03937 1-162, looked up) MQQRSNRRSCSYIPLGVHNNAEKSLCTEVAPARKNKRSITTSPIVNINVVERRLFNLELEKQQLRAKNLSENTGGGSPNGGAYLDAKKGVREQDQYQGGPSKELDRLQPPPSMKKSPPRKKKSLKDLIYETNKTFYQVDSNKVKYKVGLSKKQLLPSKTVDN
 | 0.00758 | B1
 | 0.0058 | Rad51–K191R (natural protein, S. cerevisiae, UniProt P25454 1-400, looked up) MSQVQEQHISESQLQYGNGSLMSTVPADLSQSVVDGNGNGSSEDIEATNGSGDGGGLQEQAEAQGEMEDEAYDEAALGSFVPIEKLQVNGITMADVKKLRESGLHTAEAVAYAPRKDLLEIKGISEAKADKLLNEAARLVPMGFVTAADFHMRRSELICLTTGSKNLDTLLGGGVETGSITELFGEFRTGRSQLCHTLAVTCQIPLDIGGGEGKCLYIDTEGTFRPVRLVSIAQRFGLDPDDALNNVAYARAYNADHQLRLLDAAAQMMSESRFSLIVVDSVMALYRTDFSGRGELSARQMHLAKFMRALQRLADQFGVAVVVTNQVVAQVDGGMAFNPDPKKPIGGNIMAHSSTTRLGFKKGKGCQRLCKVVDSPCLPEAECVFAIYEDGVGDPREEDE
